Legend:
[1] = Substrate specificity of purified enzymes, PMS-DCIP spectrophotometric assay; assay type: biochemical; settings: A′ corrected 1.5-fold (purity about 65%)
Description: The enzymatic activity of the AADHs herein can be determined by methods known in the art, such as by photometric analysis using a spectrophotometer. In accordance with the present invention, one unit of enzyme activity was defined as the amount of enzyme which catalyzed the reduction of 1 μmole of DCIP per minute. The extinction coefficient of DCIP at pH 8.0 was taken as 15 mM^−1. In a preferred standard assay for determining the enzyme activity of the AADHs herein, a first cuvette includes a standard reaction mixture (1.0 ml) containing 0.1 mM DCIP, 1 mM PMS, 2 to 125 mM substrate, 50 mM Tris-malate-NaOH buffer (pH 8.0), and 10 μl of the enzyme solution. A second cuvette, i.e., a reference cuvette, contains all the above components except the substrate. The reference cuvette is used to standardize the background absorbance resulting from a substrate-independent (endogenous) reaction. Preferably, a double beam spectrophotometer is used to determine the activity of the enzyme in the presence of a substrate with respect to a standard reaction mixture in the absence of the substrate.
Enzyme activities of each clone (cell free extract, soluble fraction and membrane fraction) were measured by photometric analysis. The cells of each clone were inoculated in 5 ml of MB medium in a test tube and cultivated at 30° C. for 24 hours. The resulting broth was transferred into 200 ml of fresh MB medium in 500 ml flask and the flask was shaken on the rotary flask shaker at 30° C. for 24 hours. The cells were collected by centrifugation at 6,000×g for 10 minutes and washed with 40 ml of cold buffer consisting of 50 mM Tris-HCl, pH 7.5, 5 mM MgCl2 and 0.5 mM phenylmethylsulfonyl fluoride and suspended with the same buffer to prepare cell suspension of 1 g wet cells per 5 ml. The cell suspension was subjected twice to a French press cell disruptor (1,500 kg/cm^2) and the resulting homogenate was centrifuged at 6,000×g for 10 minutes to remove cell debris. Thus obtained cell free extract (CFE) was centrifuged at 100,000×g for 60 minutes. The resulting supernatant and pellet were collected as the cytosol fraction and the membrane fraction, respectively and subjected to PMS-DCIP assay as follows. The enzyme reaction mixture (1.0 ml) contained 100 μM DCIP, 1 mM PMS, 50 mM Tris malate-NaOH buffer, pH 8.0, a substrate and the enzyme (10 μl). Substrate-dependent decreasing rate of absorbance of DCIP at 600 nm was measured at 25° C. by using a Kontron spectrophotometer UVIKON 810. […] In the A-group, there were three types, A, A′ and A″ each of which was distinguished from each other by their physical map of the DNA carried on each plasmid. B- or C-group each consisted of only one type of protein derived from one region of the chromosomal DNA.

[2] = Thermal stability, 5 minutes, residual activity by PMS-DCIP assay; assay type: physicochemical
Description: Table 4 indicates the results of thermal-stabilities of the enzymes. The enzyme (about 0.05 mg/ml) in 25 mM HEPES buffer, pH 7.5, containing 5% sucrose, 0.2 M NaCl, and 5 mM CaCl2 was incubated at temperature indicated in the table (4-60° C.) for 5 minutes, cooled in ice bath and assayed by PMS-DCIP spectrophotometric method. Remaining activity was expressed as relative activity against that obtained by 4° C. incubation.

[3] = 4° C. for 5 minutes (reference)
[4] = 20° C. for 5 minutes, relative to 4° C. incubation
[5] = 30° C. for 5 minutes, relative to 4° C. incubation
[6] = 40° C. for 5 minutes, relative to 4° C. incubation
[7] = 50° C. for 5 minutes, relative to 4° C. incubation
[8] = 60° C. for 5 minutes, relative to 4° C. incubation

Molecule	Substrate specificity ([1]; 2 mM L-Sorbosone)	Substrate specificity ([1]; 50 mM D-Glucose)	Substrate specificity ([1]; 50 mM D-Mannitol)	Substrate specificity ([1]; 50 mM Isopropanol)	Substrate specificity ([1]; 50 mM n-Propanol)	Substrate specificity ([1]; 125 mM D-Fructose)	Substrate specificity ([1]; 125 mM D-Sorbitol)	Substrate specificity ([1]; 125 mM L-Sorbose)	Relative activity (thermal stability) [2, 3] [%]	Relative activity (thermal stability) [2, 4] [%]	Relative activity (thermal stability) [2, 5] [%]	Relative activity (thermal stability) [2, 6] [%]	Relative activity (thermal stability) [2, 7] [%]	Relative activity (thermal stability) [2, 8] [%]
Enzyme A″: recombinant AADH of G. oxydans DSM No. 4025, amino acid sequence SEQ ID NO 7, plasmid p26C3 (protein, Gluconobacter oxydans; SIGNAL (1)..(23)) MKLTTLLQSSAALLVLGTIPALAQTAITDEMLANPPAGEWINYGQNQENYRHSPLTQITADNVGQLQLVWARGMEAGKIQVTPLVHDGVMYLANPGDVIQAIDAATGDLIWEHRRQLPNIATLNSFGEPTRGMALYGTNVYFVSWDNHLVALDTSTGQVVFDVDRGQGTDMVSNSSGPIVANGVIVAGSTCQYSPFGCFVSGHDSATGEELWRNTFIPRAGEEGDETWGNDYEARWMTGVWGQITYDPVGGLVHYGTSAVGPAAEIQRGTVGGSMYGTNTRFAVRPETGEIVWRHQTLPRDNWDQECTFEMMVVNVDVQPSAEMEGLHAINPDAATGERRVVTGVPCKNGTMWQFDAETGEFLWARDTSYQNLIESVDPDGLVHVNEDLVVTELEVAYEICPTFLGGRDWPSAALNPDTGIYFIPLNNACSGMTAVDQEFSSLDVYNVSLDYKLSPGSENMGRIDAIDISTGRTLWSAERYASNYAPVLSTGGGVLFNGGTDRYFRALSQETGETLWQTRLATVASGQAISYEIDGVQYVAIGRGGTSYGSNHNRALTERIDSTAIGSAIYVFALPQQ	26.5 units/mg of purified protein	17.8 units/mg of purified protein	6.2 units/mg of purified protein	154.9 units/mg of purified protein	262.3 units/mg of purified protein	17.3 units/mg of purified protein	30.1 units/mg of purified protein	30.3 units/mg of purified protein	100.0	96.0	86.1	72.8	26.6	13.3
Enzyme A′: recombinant AADH of G. oxydans DSM No. 4025, amino acid sequence SEQ ID NO 6, plasmid p1E2 (protein, Gluconobacter oxydans; SIGNAL (1)..(23)) MKTSSLLVASVAALASYSSFALAQVTPVTDELLANPPAGEWISYGQNQENYRHSPLTQITTENVGQLQLVWARGMQPGKVQVTPLIHDGVMYLANPGDVIQAIDAKTGDLIWEHRRQLPNIATLNSFGEPTRGMALYGTNVYFVSWDNHLVALDTATGQVTFDVDRGQGEDMVSNSSGPIVANGVIVAGSTCQYSPFGCFVSGHDSATGEELWRNYFIPRAGEEGDETWGNDYEARWMTGVWGQITYDPVGGLVHYGSSAVGPASETQRGTTGGTMYGTNTRFAVRPETGEIVWRHQTLPRDNWDQECTFEMMVANVDVQPAADMDGVRSINPNAATGERRVLTGVPCKTGTMWQFDAETGEFLWARDTSYENIIESIDENGIVTVDESKVLTELDTPYDVCPLLLGGRDWPSAALNPDTGIYFIPLNNTCMDIEAVDQEFSSLDVYNQSLTAKMAPGKELVGRIDAIDISTGRTLWTAEREASNYAPVLSTAGGVLFNGGTDRYFRALSQETGETLWQTRLATVASGQAVSYEIDGVQYIAIGGGGTTYGSFHNRPLAEPVDSTAIGNAMYVFALPQQ	5.0 units/mg of purified protein	0.0 units/mg of purified protein	1.3 units/mg of purified protein	108.9 units/mg of purified protein	180.7 units/mg of purified protein	2.9 units/mg of purified protein	7.8 units/mg of purified protein	1.6 units/mg of purified protein	100.0	100.8	103.6	78.9	0.6	0.0
Enzyme B: recombinant AADH of G. oxydans DSM No. 4025, amino acid sequence SEQ ID NO 8, plasmid pSS31/pSSB103R (protein, Gluconobacter oxydans; SIGNAL (1)..(23)) MNPTTLLRTSAAVLLLTAPAAFAQVTPITDELLANPPAGEWINYGRNQENYRHSPLTQITADNVGQLQLVWARGMEAGAVQVTPMIHDGVMYLANPGDVIQALDAQTGDLIWEHRRQLPAVATLNAQGDRKRGVALYGTSLYFSSWDNHLIALDMETGQVVFDVERGSGEDGLTSNTTGPIVANGVIVAGSTCQYSPYGCFISGHDSATGEELWRNHFIPQPGEEGDETWGNDFEARWMTGVWGQITYDPVTNLVFYGSTGVGPASETQRGTPGGTLYGTNTRFAVRPDTGEIVWRHQTLPRDNWDQECTFEMMVANVDVQPSAEMEGLRAINPNAATGERRVLTGAPCKTGTMWSFDAASGEFLWARDTNYTNMIASIDETGLVTVNEDAVLKELDVEYDVCPTFLGGRDWSSAALNPDTGIYFLPLNNACYDIMAVDQEFSALDVYNTSATAKLAPGFENMGRIDAIDISTGRTLWSAERPAANYSPVLSTAGGVVFNGGTDRYFRALSQETGETLWQARLATVATGQAISYELDGVQYIAIGAGGLTYGTQLNAPLAEAIDSTSVGNAIYVFALPQ	73.6 units/mg of purified protein	943.9 units/mg of purified protein	517.4 units/mg of purified protein	72.3 units/mg of purified protein	40.0 units/mg of purified protein	2.1 units/mg of purified protein	130.9 units/mg of purified protein	8.4 units/mg of purified protein	100.0	97.2	95.4	84.6	29.2	0.0

Source: patent publication US6730503B1 (Roche Vitamins Inc., priority 1996, dated 2004)
